# Literature values in patent US20100233200A1, “VECTOR ENCODING THERAPEUTIC POLYPEPTIDE AND SAFETY ELEMENTS TO CLEAR […]” (priority 2007, published 2010).
# B1: R200A mutant: modified human tmpk, SEQ ID NOS: 15 and 16 (protein)
# chain: MAARRGALIVLEGVDRAGKSTQSRKLVEALCAAGHRAELLRFPERSTEIGKLLSSYLQKKSDVEDHSVHLLFSANRWEQVPLIKEKLSQGVTLVVDRYAFSGVAFTGAKENFSLDWCKQPDVGLPKPDLVLFLQLQLADAAKRGAFGHERYENGAFQERALRCFHQLMKDTTLNWKMVDASKSIEAVHEDIRVLSEDAIATATEKPLGELWK
# B2: F105Y mutant: modified human tmpk, SEQ ID NO: 11, SEQ ID NO: 21 (protein, UniProt P23919 2-212, looked up, variant F105Y)
# Thymidylate kinase: AARRGALIVLEGVDRAGKSTQSRKLVEALCAAGHRAELLRFPERSTEIGKLLSSYLQKKSDVEDHSVHLLFSANRWEQVPLIKEKLSQGVTLVVDRYAFSGVAYTGAKENFSLDWCKQPDVGLPKPDLVLFLQLQLADAAKRGAFGHERYENGAFQERALRCFHQLMKDTTLNWKMVDASKSIEAVHEDIRVLSEDAIRTATEKPLGELWK
# Tested on: human tmpk
# Conditions: relative to wild-type tmpk; cited from earlier work
row,Molecule,enzymatic activity (dTMP to dTDP or AZT-MP to AZT-DP)
1,B1,superior enzymatic activity
2,B2,superior enzymatic activity
